The target in this test is BI 655089 (llama). Nature of the test: flow cytometry on cells. A general note: In flow cytometry, cells or beads pass a laser one at a time.

B1: human CX3CR1 (receptor, UniProt P49238 1-355, looked up)
chain: MDQFPESVTENFEYDDLAEACYIGDIVVFGTVFLSIFYSVIFAIGLVGNLLVVFALTNSKKPKSVTDIYLLNLALSDLLFVATLPFWTHYLINEKGLHNAMCKFTTAFFFIGFFGSIFFITVISIDRYLAIVLAANSMNNRTVQHGVTISLGVWAAAILVAAPQFMFTKQKENECLGDYPEVLQEIWPVLRNVETNFLGFLLPLLIMSYCYFRIIQTLFSCKNHKKAKAIKLILLVVIVFFLFWTPYNVMIFLETLKLYDFFPSCDMRKDLRLALSVTETVAFSHCCLNPLIYAFAGEKFRRYLYHLYGKCLAVLCGRSVHVDFSSSESQRSRHGSVLSSNFTYHTSDGDALLLL
As for B1, the binding result is listed as “binds”.
